From the MegaScale stability set (Tsuboyama et al. 2023)

B1: r4_43_TrROS_Hall (parent)
chain: DLVTIKVPLENLEEIKKAAEKAGFKIVSISYDKENKEVTIVIEKKK

Variants of: B1
Test: folding stability dG (cDNA display proteolysis); higher = more stable
Conditions: PBS, room temperature

Folding stability dG [kcal/mol] of substitutions, site by site:
Y31: F 3.3, D 2.58, E 3.29, G 2.76, A 3.06, C 3.37
K25: L 3.05, N 3.34, S 3.58, Y 3.88, T 3.58, P 2.05, R 4.04, W 3.57, Q 3.29, I 3.56, H 3.2, A 3.12, M 3.63, V 3.08, F 3.9, C 3.06, E 3.04, D 2.73, G 2.89
F24: V 2.74, M 2.55, Y 3.53, D 2.47, N 2.56, G 2.74, I 2.52, A 3.19, K 2.51, R 2.77, T 2.88, Q 2.5, L 2.8, W 3.68, E 2.85, H 2.73, P 1.47, S 2.69
V27: I 3.57, R 3.96, M 3.99, C 3.64, Y 4.35, E 2.88, H 3.96, P 1.89, Q 3.48, W 4.34, F 3.87, N 3.24, D 2.75, G 2.59, A 3.48, L 3.51, T 3.77, S 3.35, K 3.96
I26: C 3, Y 2.52, P 1.96, M 3.31, F 3.31, N 1.35, S 1.81, D 1.25, T 2.76, V 3.41, A 2.13, L 3.59, G 0.98, E 1.75, K 1.31, W 3.12, H 1.53, R 1.21, Q 2.02
S30: K 3.59, A 3.4, T 3.66, L 3.74, N 3.79, C 3.53, H 3.68, Q 3.47, Y 3.83, F 3.9, P 0.669, I 3.66, E 3.4, W 3.71, V 3.96, M 3.49, D 3.5, R 3.62, G 3.22
A22: W 4.33, P 2.38, Q 3.62, M 3.68, K 3.58, N 3.54, L 3.66, T 3.33, Y 3.95, I 3.67, R 3.68, V 3.75, S 3.56
I29: K 2.44, A 3.16, L 3.85, M 3.79, Y 4.25, R 2.47, T 3.56, G 1.61, D 1.72, N 1.97, H 2.76, F 4.07, Q 3.28, V 3.67, E 3.18, W 3.93, S 2.98
S28: Q 3.48, D 3.02, A 3.71, F 3.77, L 3.18, N 3.42, R 3.88, C 3.69, P 2.51, W 3.88, V 3.22, E 3.18, I 3.39, Y 3.88, K 3.52, G 3.53, T 3.48, M 3.28
G23: D 2.75, Y 3.44, R 3.52, W 3.67, Q 3.51, S 3.28, P 2.92, K 3.73, I 2.98, F 3.61, V 2.78, H 3.79, M 3.46, L 3.52, T 3.23, C 3.84, N 3.44, E 3.18, A 3.54
